Measured values from paper PMC4721548, “Conformational heterogeneity of the Roc domains in C. tepidum Roc–COR and implications for human LRRK2 Parkinson mutations” (Bioscience Reports, 2015).

Assays:
[1] = tested on: T1, Nc1nc2c(ncn2[C@@H]2O[C@H](COP(=O)(O)OP(=O)(O)OP(=O)(O)O)[C@@H](O)[C@H]2O)c(=O)[nH]1; experiment: multiple turnover radioactive charcoal GTPase assay, Michaelis-Menten fit; assay type: biochemical, C. tepidum; conditions: 100 nM protein, 50 mM NaCl, 20 mM Tris/HCl, 10 mM MgCl2, 1 mM DTT, 0.5 mg/ml BSA, pH 7.5, 25°C, labelled compound (gamma-32P)
T1 construct: Roc-COR-kinase fragment, AA 1334-2147, N-terminal His-tag, expressed in Sf9 cells, Ni-NTA purified

[2] = tested on: T1, Nc1nc2c(ncn2[C@@H]2O[C@H](COP(=O)(O)OP(=O)(O)OP(=O)(O)O)[C@@H](O)[C@H]2O)c(=O)[nH]1; experiment: as above; assay type: biochemical, Chlorobaculum tepidum; conditions: 100 nM protein, 50 mM NaCl, 20 mM Tris/HCl, 10 mM MgCl2, 1 mM DTT, 0.5 mg/ml BSA, pH 7.5, 25°C, labelled compound (gamma-32P)

Sequence of LRRK2 Roc-COR-kinase fragment (Homo sapiens; R1441C) (chain, as listed by the source R1441C): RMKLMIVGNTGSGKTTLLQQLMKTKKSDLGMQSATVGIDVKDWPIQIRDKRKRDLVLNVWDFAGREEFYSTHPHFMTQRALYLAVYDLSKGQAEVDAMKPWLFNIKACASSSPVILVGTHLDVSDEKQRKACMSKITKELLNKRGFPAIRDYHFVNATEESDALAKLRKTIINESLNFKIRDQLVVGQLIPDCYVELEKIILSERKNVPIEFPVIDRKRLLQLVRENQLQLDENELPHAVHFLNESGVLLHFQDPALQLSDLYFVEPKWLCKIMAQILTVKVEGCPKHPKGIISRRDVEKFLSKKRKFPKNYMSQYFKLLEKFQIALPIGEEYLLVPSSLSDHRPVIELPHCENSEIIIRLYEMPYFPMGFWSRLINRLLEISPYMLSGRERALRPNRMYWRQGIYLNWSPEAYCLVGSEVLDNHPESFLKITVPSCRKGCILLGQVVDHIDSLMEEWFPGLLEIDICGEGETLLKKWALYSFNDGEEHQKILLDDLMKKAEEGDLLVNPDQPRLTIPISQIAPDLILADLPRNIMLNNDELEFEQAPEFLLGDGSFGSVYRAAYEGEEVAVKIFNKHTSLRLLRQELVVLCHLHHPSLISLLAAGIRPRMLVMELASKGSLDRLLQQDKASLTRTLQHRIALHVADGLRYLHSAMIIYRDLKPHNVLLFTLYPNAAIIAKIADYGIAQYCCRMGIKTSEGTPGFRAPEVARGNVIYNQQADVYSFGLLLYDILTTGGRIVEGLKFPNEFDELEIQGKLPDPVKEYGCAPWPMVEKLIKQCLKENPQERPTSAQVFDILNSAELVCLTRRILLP
Sequence of LRRK2 Roc-COR-kinase fragment (Homo sapiens) (chain, as listed by the source): as the sequence (chain, as listed by the source R1441C) above, with C108R counted along it

Substance | Km [1] | kcat [1] | Km [2] | kcat [2]
LRRK2 Roc-COR-kinase fragment (Homo sapiens) | 343 µM | 0.013 s⁻¹ | – | –
LRRK2 Roc-COR-kinase fragment (Homo sapiens; R1441C) | – | – | 541 µM | 0.00617 s⁻¹
